The conditions of the data set: Helicobacter pylori (strain ATCC 700392 / 26695), 25.2 °C, Urea, whole UniProt chain shown.
The mark [1] stands for this setting: pH 2, CD, Sodium phosphate 23 mM.
Where [2] appears, read: pH 2, Fluorescence, Sodium phosphate 23 mM.
The mark [3] stands for this setting: pH 5, Fluorescence, Sodium acetate 16 mM.

The record followed here is FireProtDB (doi:10.1074/jbc.m705677200).

B1: Flavodoxin wild type, O25776 (protein)
chain: MGKIGIFFGTDSGNAEAIAEKISKAIGNAEVVDVAKASKEQFNSFTKVILVAPTAGAGDLQTDWEDFLGTLEASDFATKTIGLVGLGDQDTYSETFAEGIFHIYEKAKAGKVVGQTPTDGYHFEASKAVEGGKFVGLVIDEDNQDDLTDERISKWVEQVKGSFA
Turning to B1, the denaturant m value was 1.28 kcal/mol/M under setting [1]; 1.35 kcal/mol/M under setting [2]; 2.24 kcal/mol/M (pH 5, CD, Sodium acetate 16 mM); 2.32 kcal/mol/M under setting [3]; 2.11 kcal/mol/M (pH 7, CD, MOPS 30 mM); 2.18 kcal/mol/M (pH 7, Fluorescence, MOPS 30 mM). Also, the denaturant m value (pH 9, CD, CHES 35 mM) came to 2.19 kcal/mol/M and the denaturant m value (pH 9, Fluorescence, CHES 35 mM) is 2.03 kcal/mol/M. The “denaturant midpoint (higher = more stable)” value is, setting by setting: under setting [1], 0.89 M; under setting [2], 0.84 M; (pH 5, CD, Sodium acetate 16 mM) 4.1 M; under setting [3], 4.04 M; (pH 7, CD, MOPS 30 mM) 2.94 M; (pH 7, Fluorescence, MOPS 30 mM) 3.01 M. The “denaturant midpoint (higher = more stable)” value runs as follows: (pH 9, CD, CHES 35 mM) 2.16 M; (pH 9, Fluorescence, CHES 35 mM) 2.21 M. The unfolding free energy amounted to 1.14 kcal/mol under setting [1]; 1.13 kcal/mol under setting [2]; 9.2 kcal/mol (pH 5, CD, Sodium acetate 16 mM); 9.37 kcal/mol under setting [3]; 6.2 kcal/mol (pH 7, CD, MOPS 30 mM); 6.56 kcal/mol (pH 7, Fluorescence, MOPS 30 mM). The unfolding free energy worked out at 4.73 kcal/mol (pH 9, CD, CHES 35 mM) and 4.5 kcal/mol (pH 9, Fluorescence, CHES 35 mM).
